From publication PMC4895972, “Calcium binding protects E-cadherin from cleavage by Helicobacter pylori HtrA” (Gut Pathogens, 2016) come the findings set out here.

The data set deals with the molecule itself. Briefly: non-reducing SDS-PAGE; 3 µg HpHtrA preincubated in 50 mM HEPES pH 7.5 without or with increasing concentrations of CaCl2; sample buffer without β-mercaptoethanol; Coomassie-stained.

B1: recombinant HtrA (high temperature requirement A) from H. pylori strain 26695, wildtype (enzyme)
chain: GNIQIQSMPKVKERVSVPSKDDTIYSYHDSIKDSIKAVVNISTEKKIKNNFIGGGVFNDPFFQQFFGDLGGMIPKERMERALGSGVIISKDGYIVTNNHVIDGADKIKVTIPGSNKEYSATLVGTDSESDLAVIRITKDNLPTIKFSDSNDISVGDLVFAIGNPFGVGESVTQGIVSALNKSGIGINSYENFIQTDASINPGNSGGALIDSRGGLVGINTAIISKTGGNHGIGFAIPSNMVKDTVTQLIKTGKIERGYLGVGLQDLSGDLQNSYDNKEGAVVISVEKDSPAKKAGILVWDLITEVNGKKVKNTNELRNLIGSMLPNQRVTLKVIRDKKERAFTLTLAERKNPNKKETISAQNGAQGQLNGLQVEDLTQETKRSMRLSDDVQGVLVSQVNENSPAEQAGFRQGNIITKIEEVEVKSVADFNHALEKYKGKPKRFLVLDLNQGYRIILVK
notes: also called HpHtrA; H. pylori HtrA; source: E. coli BL21, purified (GSH-Sepharose, GST-tag removed with PreScission protease, dialyzed against 50 mM Tris pH 7.5)
In the case of B1, the binding result is “binds”.
